The record followed here is US20180072807A1 (UNIVERSITAT STUTTGART, published 2018).

The target of test [1] is T1, proapoptotic TRAIL receptor DR4 (TRAIL R1) (UniProt O00220 24-468, limits assumed).
T1 construct: whole, on cells; Endogenous receptor on cell lines
The test can be described thus: flow cytometry on EGFR low/negative HepG2 cells; detection with anti-TRAIL mAb. For orientation: A flow cytometer gives signals particle by particle.

Test [2] addresses EGF receptor (EGFR, erbB1) (human, UniProt P00533 25-1210). The test can be described thus: cell-based or functional assay.
In another test the target is T2, human serum albumin (human, UniProt P02768 25-609).
T2 construct: also called HSA
The test can be described thus: size exclusion chromatography after incubation with albumin.

Another test has as its target T3, mouse serum albumin (mouse, UniProt P07724 25-608).
T3 construct: also called MSA
The test is described as above.

B1: EGFR-specific TRAIL fusion protein according to SEQ ID NO: 102 (FLAG tag, huC225 VH, GGGGS linker L, VL, linker X, scTRAIL) (other)
chain: LEASDYKDDDDKGAEVQLVESGGGLVQPGGSLRLSCAASGFSLTNYGVHWVRQAPGKGLEWLGVIWSGGNTDYNTPFTSRFTISRDNSKNTLYLQMNSLRAEDTAVYYCARALTYYDYEFAYWGQGTTVTVSSGGGGSDIQLTQSPSFLSASVGDRVTITCRASQSIGTNIHWYQQKPGKAPKLLIKYASESISGVPSRFSGSGSGTEFTLTISSLQPEDFATYYCQQNNNWPTTFGAGTKLEIKRAAAEFTRGTSEETISTVQEKQQNISPLVRERGPQRVAAHITGTRGRSNTLSSPNSKNEKALGRKINSWESSRSGHSFLSNLHLRNGELVIHEKGFYYIYSQTYFRFQEEIKENTKNDKQMVQYIYKYTSYPDPILLMKSARNSCWSKDAEYGLYSIYQGGIFELKENDRIFVSVTNEHLIDMDHEASFFGAFLVGGGGSGGGSTSEETISTVQEKQQNISPLVRERGPQRVAAHITGTRGRSNTLSSPNSKNEKALGRKINSWESSRSGHSFLSNLHLRNGELVIHEKGFYYIYSQTYFRFQEEIKENTKNDKQMVQYIYKYTSYPDPILLMKSARNSCWSKDAEYGLYSIYQGGIFELKENDRIFVSVTNEHLIDMDHEASFFGAFLVGGGGSGGGSTSEETISTVQEKQQNISPLVRERGPQRVAAHITGTRGRSNTLSSPNSKNEKALGRKINSWESSRSGHSFLSNLHLRNGELVIHEKGFYYIYSQTYFRFQEEIKENTKNDKQMVQYIYKYTSYPDPILLMKSARNSCWSKDAEYGLYSIYQGGIFELKENDRIFVSVTNEHLIDMDHEASFFGAFLVG
notes: Made in HEK293 cells; The FLAG tag was kept for purification; also called divalent TRAIL fusion protein; dimeric TRAIL fusion protein
In the case of B1, in test [1], the binding result is listed as “binds”.

B2: EGFR-specific TRAIL fusion protein of SEQ ID NO: 96 (FLAG tag, huC225 VH, (GGGGS)3 linker L, VL, linker X, scTRAIL) (other)
chain: LEASDYKDDDDKGAEVQLVESGGGLVQPGGSLRLSCAASGFSLTNYGVHWVRQAPGKGLEWLGVIWSGGNTDYNTPFTSRFTISRDNSKNTLYLQMNSLRAEDTAVYYCARALTYYDYEFAYWGQGTTVTVSSGGGGSGGGGSGGGGSDIQLTQSPSFLSASVGDRVTITCRASQSIGTNIHWYQQKPGKAPKLLIKYASESISGVPSRFSGSGSGTEFTLTISSLQPEDFATYYCQQNNNWPTTFGAGTKLEIKRAAAEFTRGTSEETISTVQEKQQNISPLVRERGPQRVAAHITGTRGRSNTLSSPNSKNEKALGRKINSWESSRSGHSFLSNLHLRNGELVIHEKGFYYIYSQTYFRFQEEIKENTKNDKQMVQYIYKYTSYPDPILLMKSARNSCWSKDAEYGLYSIYQGGIFELKENDRIFVSVTNEHLIDMDHEASFFGAFLVGGGGSGGGSTSEETISTVQEKQQNISPLVRERGPQRVAAHITGTRGRSNTLSSPNSKNEKALGRKINSWESSRSGHSFLSNLHLRNGELVIHEKGFYYIYSQTYFRFQEEIKENTKNDKQMVQYIYKYTSYPDPILLMKSARNSCWSKDAEYGLYSIYQGGIFELKENDRIFVSVTNEHLIDMDHEASFFGAFLVGGGGSGGGSTSEETISTVQEKQQNISPLVRERGPQRVAAHITGTRGRSNTLSSPNSKNEKALGRKINSWESSRSGHSFLSNLHLRNGELVIHEKGFYYIYSQTYFRFQEEIKENTKNDKQMVQYIYKYTSYPDPILLMKSARNSCWSKDAEYGLYSIYQGGIFELKENDRIFVSVTNEHLIDMDHEASFFGAFLVG
notes: also called VH-VL-scTRAIL
Consider B2, for which, in test [2], the “apoptosis-inducing activity on EGFR-positive Huh-7 cells compared to scTRAIL (SEQ ID NO: 104)” value was found to be 10 fold. Further, in test [1], the binding result is “binds”.

B3: dimeric EGFR-specific TRAIL fusion protein of SEQ ID NO: 125 with an albumin binding domain (ABD) between component B and components A (other)
chain: LEASDYKDDDDKGAEVQLVESGGGLVQPGGSLRLSCAASGFSLTNYGVHWVRQAPGKGLEWLGVIWSGGNTDYNTPFTSRFTISRDNSKNTLYLQMNSLRAEDTAVYYCARALTYYDYEFAYWGQGTTVTVSSGGGGSDIQLTQSPSFLSASVGDRVTITCRASQSIGTNIHWYQQKPGKAPKLLIKYASESISGVPSRFSGSGSGTEFTLTISSLQPEDFATYYCQQNNNWPTTFGAGTKLEIKRGGSQHDEAVDANSLAEAKVLANRELDKYGVSDYYKNLINNAKTVEGVKALIDEILAALPAAAGNGTSNGTSEFTRGTSEETISTVQEKQQNISPLVRERGPQRVAAHITGTRGRSNTLSSPNSKNEKALGRKINSWESSRSGHSFLSNLHLRNGELVIHEKGFYYIYSQTYFRFQEEIKENTKNDKQMVQYIYKYTSYPDPILLMKSARNSCWSKDAEYGLYSIYQGGIFELKENDRIFVSVTNEHLIDMDHEASFFGAFLVGGGGSGGGSTSEETISTVQEKQQNISPLVRERGPQRVAAHITGTRGRSNTLSSPNSKNEKALGRKINSWESSRSGHSFLSNLHLRNGELVIHEKGFYYIYSQTYFRFQEEIKENTKNDKQMVQYIYKYTSYPDPILLMKSARNSCWSKDAEYGLYSIYQGGIFELKENDRIFVSVTNEHLIDMDHEASFFGAFLVGGGGSGGGSTSEETISTVQEKQQNISPLVRERGPQRVAAHITGTRGRSNTLSSPNSKNEKALGRKINSWESSRSGHSFLSNLHLRNGELVIHEKGFYYIYSQTYFRFQEEIKENTKNDKQMVQYIYKYTSYPDPILLMKSARNSCWSKDAEYGLYSIYQGGIFELKENDRIFVSVTNEHLIDMDHEASFFGAFLVG
For B3, the binding result with human serum albumin and with mouse serum albumin was “binds” throughout.

B4: dimeric EGFR-specific TRAIL fusion protein of SEQ ID NO: 126 with an albumin binding domain (ABD) at the C-terminus (other)
chain: LEASDYKDDDDKGAEVQLVESGGGLVQPGGSLRLSCAASGFSLTNYGVHWVRQAPGKGLEWLGVIWSGGNTDYNTPFTSRFTISRDNSKNTLYLQMNSLRAEDTAVYYCARALTYYDYEFAYWGQGTTVTVSSGGGGSDIQLTQSPSFLSASVGDRVTITCRASQSIGTNIHWYQQKPGKAPKLLIKYASESISGVPSRFSGSGSGTEFTLTISSLQPEDFATYYCQQNNNWPTTFGAGTKLEIKRAAAGNGTSNGTSEFTRGTSEETISTVQEKQQNISPLVRERGPQRVAAHITGTRGRSNTLSSPNSKNEKALGRKINSWESSRSGHSFLSNLHLRNGELVIHEKGFYYIYSQTYFRFQEEIKENTKNDKQMVQYIYKYTSYPDPILLMKSARNSCWSKDAEYGLYSIYQGGIFELKENDRIFVSVTNEHLIDMDHEASFFGAFLVGGGGSGGGSTSEETISTVQEKQQNISPLVRERGPQRVAAHITGTRGRSNTLSSPNSKNEKALGRKINSWESSRSGHSFLSNLHLRNGELVIHEKGFYYIYSQTYFRFQEEIKENTKNDKQMVQYIYKYTSYPDPILLMKSARNSCWSKDAEYGLYSIYQGGIFELKENDRIFVSVTNEHLIDMDHEASFFGAFLVGGGGSGGGSTSEETISTVQEKQQNISPLVRERGPQRVAAHITGTRGRSNTLSSPNSKNEKALGRKINSWESSRSGHSFLSNLHLRNGELVIHEKGFYYIYSQTYFRFQEEIKENTKNDKQMVQYIYKYTSYPDPILLMKSARNSCWSKDAEYGLYSIYQGGIFELKENDRIFVSVTNEHLIDMDHEASFFGAFLVGGGSGGQHDEAVDANSLAEAKVLANRELDKYGVSDYYKNLINNAKTVEGVKALIDEILAALP
For B4, the binding result in the test with human serum albumin and with mouse serum albumin was “binds” in each case.
